{"source": "patent US7202065B2", "about": "“Stabilized liquid preparation of the protease which activates blood coagulation factor VII, or of its proenzyme” (ZLB Behring GmbH, priority 2001, dated 2007)", "origin": "cited, not measured here", "settings": "solution containing 20 mM Tris, 0.15 mM NaCI at a pH of 7.5"}
{"substance": "proenzyme: proenzyme, which is the non-activated form of the protease which activates blood coagulation factor VII", "values": [{"measurement": "loss of activity after enrichment or isolation", "result": "rapid loss of activity"}]}
